Results as given in patent US12338483.

B1: Tobacco Etch Virus protease (protein)
chain: GESLFKGPRDYNPISSTICHLTNESDGHTTSLYGIGFGPFIITNKHLFRRNNGTLLVQSLHGVFKVKNTTTLQQHLIDGRDMIIIRMPKDFPPFPQKLKFREPQREERICLVTTNFQTKSMSSMVSDTSCTFPSSDGIFWKHWIQTKDGQCGSPLVSTRDGFIVGIHSASNFTNTNNYFTSVPKNFMELLTNQEAQQWVSGWRLNADSVLWGGHKVFMSKPEEPFQPVKEATQLMNELVYSQ
B2: West Nile Virus NS3 protease (protein)
chain: GGVLWDTPSPKEYKKGDTTTGVYRIMTRGLLGSYQAGAGVMVEGVFHTLWHTTKGAALMSGEGRLDPYWGSVKEDRLCYGGPWKLQHKWNGHDEVQMIVVEPGKNVKNVQTKPGVFKTPEGEIGAVTLDYPTGTSGSPIVDKNGDVIGLYGNGVIMPNGSYISAIVQGERMEEPAPAGFEPEML

Target: T1, GzmB/MMP AND-gate protease activity sensor
T1 chain: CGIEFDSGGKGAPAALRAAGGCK

| Protein | fluorescent signal in a cleavage assay (AND-gate sensor with GzmB and a second protease) |
| --- | --- |
| B1 | The sensor produced low signals with the viral proteases compared to MMP8 |
| B2 | The sensor produced low signals with the viral proteases compared to MMP8 |
